How the values were obtained:
[1] = molecular target: T1, recombinant mouse TfR-1, His-tagged (Sino Biological 50741-M07H) (mouse, UniProt Q62351 89-763); assay: SPR, His-captured TfR1
T1 construct: bought; His-tagged; also called mTfR1; mTfR-1
Method: (§1) Detailed binding kinetic analyses were performed to gain a better understanding of the relationship between affinity and brain penetration of the Clone H variants. Biacore surface plasmon resonance (SPR) analysis using immobilized mouse and human TfR-1 was performed for the clones (Table 5).
(§2) Binding kinetics of VNAR-Fcs was determined by surface plasmon resonance (Biacore T200, GE Healthcare). CMS chips were coated with anti-His antibodies (His Capture Kit, GE Healthcare) as recommended by the manufacturer and human or mouse his-tagged TfR1 (SinoBiological) at 10 ug/mL in HBS-EP+ (GE Healthcare) was captured at flow rate 10 ul/min (contact time 120 s). […] A flow cell without TfR1 captured served as a reference. Sensorgrams were fitted and kinetic constants were determined using Biacore T200 Evaluation software. Chips were regenerated in 10 mM Glycine-HCl, pH 1.5 (contact time: 120 s at flow rate 30 ul/min).

[2] = molecular target: T2, recombinant human TfR-1, His-tagged (Sino Biological 11020-H07H) (human, UniProt P02786 89-760); assay: SPR, His-captured TfR1
T2 construct: bought; His-tagged; also called hTfR1; hTfR-1
T2 sequence (P02786 89-760 limits assumed): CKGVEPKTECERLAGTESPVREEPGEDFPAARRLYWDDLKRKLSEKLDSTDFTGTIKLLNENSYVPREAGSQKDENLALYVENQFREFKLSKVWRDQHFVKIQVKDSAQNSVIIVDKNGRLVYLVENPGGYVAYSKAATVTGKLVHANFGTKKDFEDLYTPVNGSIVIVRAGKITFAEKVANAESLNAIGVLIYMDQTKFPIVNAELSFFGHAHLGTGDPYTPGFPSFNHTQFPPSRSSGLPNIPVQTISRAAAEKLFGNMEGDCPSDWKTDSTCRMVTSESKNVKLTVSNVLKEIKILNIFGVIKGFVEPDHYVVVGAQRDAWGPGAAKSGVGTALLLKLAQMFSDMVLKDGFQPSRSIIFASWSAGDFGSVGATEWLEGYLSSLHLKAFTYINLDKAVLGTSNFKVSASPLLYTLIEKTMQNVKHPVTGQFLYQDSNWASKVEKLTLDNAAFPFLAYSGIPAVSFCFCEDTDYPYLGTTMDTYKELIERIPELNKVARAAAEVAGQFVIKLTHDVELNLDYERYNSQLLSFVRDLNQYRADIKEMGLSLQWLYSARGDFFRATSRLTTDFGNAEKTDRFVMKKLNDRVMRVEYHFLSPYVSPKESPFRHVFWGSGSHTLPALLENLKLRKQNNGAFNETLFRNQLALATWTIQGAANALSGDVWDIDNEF
Method: as §1, §2

[3] = molecular target: T3, purified mTfR1 mutant M2 (NAS) (mouse, UniProt Q62351 89-763); assay: ELISA, coated purified mTfR-1 mutant M2 (NAS) against WT
T3 construct: also called G254A
T3 sequence (Q62351 other isoform, or with tags, fused parts or gaps mutant): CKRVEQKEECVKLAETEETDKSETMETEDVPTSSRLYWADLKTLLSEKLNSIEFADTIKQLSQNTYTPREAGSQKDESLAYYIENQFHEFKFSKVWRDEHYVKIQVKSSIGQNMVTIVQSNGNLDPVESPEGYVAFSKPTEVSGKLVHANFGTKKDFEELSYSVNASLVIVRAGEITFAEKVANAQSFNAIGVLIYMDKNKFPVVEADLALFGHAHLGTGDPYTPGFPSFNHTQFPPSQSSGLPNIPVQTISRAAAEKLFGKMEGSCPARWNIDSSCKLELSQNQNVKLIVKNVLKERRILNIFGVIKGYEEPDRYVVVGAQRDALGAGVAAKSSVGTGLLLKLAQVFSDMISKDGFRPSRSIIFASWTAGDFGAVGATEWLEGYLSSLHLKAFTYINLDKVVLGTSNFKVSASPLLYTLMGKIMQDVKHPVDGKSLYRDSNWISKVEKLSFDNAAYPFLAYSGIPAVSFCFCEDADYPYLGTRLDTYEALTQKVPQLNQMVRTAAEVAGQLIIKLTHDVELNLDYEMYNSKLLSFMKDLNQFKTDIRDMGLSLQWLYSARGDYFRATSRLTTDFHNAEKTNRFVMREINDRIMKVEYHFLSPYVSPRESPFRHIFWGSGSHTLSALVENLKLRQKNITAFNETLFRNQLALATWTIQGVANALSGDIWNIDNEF

[4] = molecular target: T4, purified mTfR1 mutant M3 (NGA) (mouse, UniProt Q62351 89-763); assay: ELISA, coated purified mTfR-1
T4 construct: also called S255A
T4 sequence (Q62351 other isoform, or with tags, fused parts or gaps mutant): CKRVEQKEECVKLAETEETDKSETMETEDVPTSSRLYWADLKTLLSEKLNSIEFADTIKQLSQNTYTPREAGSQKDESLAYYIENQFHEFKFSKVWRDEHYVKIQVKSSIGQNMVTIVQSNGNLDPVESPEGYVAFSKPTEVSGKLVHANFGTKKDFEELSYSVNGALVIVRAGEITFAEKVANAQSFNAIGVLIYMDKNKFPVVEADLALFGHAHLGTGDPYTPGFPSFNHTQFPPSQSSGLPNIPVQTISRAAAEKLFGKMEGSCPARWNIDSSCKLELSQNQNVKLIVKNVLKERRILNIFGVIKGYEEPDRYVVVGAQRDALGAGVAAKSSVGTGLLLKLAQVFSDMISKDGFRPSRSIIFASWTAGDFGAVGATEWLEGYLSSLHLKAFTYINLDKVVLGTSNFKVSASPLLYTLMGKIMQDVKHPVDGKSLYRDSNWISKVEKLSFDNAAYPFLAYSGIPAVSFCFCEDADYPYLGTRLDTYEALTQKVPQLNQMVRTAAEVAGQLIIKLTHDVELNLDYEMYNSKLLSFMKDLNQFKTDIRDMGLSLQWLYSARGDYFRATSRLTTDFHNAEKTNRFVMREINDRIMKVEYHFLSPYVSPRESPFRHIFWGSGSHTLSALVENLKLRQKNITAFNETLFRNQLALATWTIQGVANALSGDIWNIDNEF

[5] = molecular target: purified WT mTfR-1 (ELISA coat) (mouse, UniProt Q62351 89-763); assay: ELISA, coated purified mTfR-1
purified WT mTfR-1 (ELISA coat), sequence (Q62351 89-763): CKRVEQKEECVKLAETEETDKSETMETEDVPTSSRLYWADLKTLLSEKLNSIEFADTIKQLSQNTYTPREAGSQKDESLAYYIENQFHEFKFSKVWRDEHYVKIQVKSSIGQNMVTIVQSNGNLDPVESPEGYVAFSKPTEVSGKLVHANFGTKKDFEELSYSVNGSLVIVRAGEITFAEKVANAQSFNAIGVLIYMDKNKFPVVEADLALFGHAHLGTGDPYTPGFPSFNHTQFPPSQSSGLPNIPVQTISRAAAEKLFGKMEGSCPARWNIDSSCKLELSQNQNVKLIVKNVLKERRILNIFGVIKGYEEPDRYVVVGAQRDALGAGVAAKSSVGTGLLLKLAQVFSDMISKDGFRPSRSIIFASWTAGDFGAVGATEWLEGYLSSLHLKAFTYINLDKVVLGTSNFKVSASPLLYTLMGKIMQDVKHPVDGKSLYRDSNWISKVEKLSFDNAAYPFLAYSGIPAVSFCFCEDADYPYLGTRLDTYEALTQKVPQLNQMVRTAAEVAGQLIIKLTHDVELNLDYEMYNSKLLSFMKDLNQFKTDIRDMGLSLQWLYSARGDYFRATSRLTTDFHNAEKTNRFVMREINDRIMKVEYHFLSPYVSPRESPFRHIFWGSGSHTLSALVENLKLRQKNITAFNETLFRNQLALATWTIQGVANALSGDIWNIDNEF

[6] = molecular target: T3, purified mTfR1 mutant M2 (NAS); assay: ELISA, coated purified mTfR-1
[7] = molecular target: T5, purified mTfR1 mutant M1 (AGS) (mouse, UniProt Q62351 89-763); assay: ELISA, coated purified mTfR-1
T5 construct: also called N253A
T5 sequence (Q62351 other isoform, or with tags, fused parts or gaps mutant): as the sequence (Q62351 89-763) above, with N165A counted along it

T1 sequence (Q62351 89-763 limits assumed, stated change not applied): as the sequence (Q62351 89-763) above

B1: Clone H VNAR-hFc fusion (Fc fusion, not shown: a dimerising Fc or GST)
chain: ARVDQTPQTITKETGESLTINCVLRDSNCELSSTYWYRKKSGSTNEESISKGGRYVETVNSGSKSFSLRINDLVVEDSGTYRCNVQQFPSSSNGRYWCDVYGGGTAVTVNA
notes: bivalent VNAR-Fc
Kd [1]: 2.54 nM | koff [1]: 9.11e-05 s⁻¹ | kon [1]: 35800 M⁻¹ s⁻¹ | Kd [2]: 6.11 nM | koff [2]: 0.00183 s⁻¹ | kon [2]: 301000 M⁻¹ s⁻¹ | fold reduction of binding relative to WT mTfR-1 [3]: ~10 fold | EC50 [4]: 6.6 nM | EC50 [5]: 1.6 nM | EC50 [6]: 170 nM | EC50 [7]: 5.7 nM

B2: Clone H variant 8 VNAR-hFc (Fc fusion, not shown: a dimerising Fc or GST)
chain: ARVDQTPQTITKETGESLTINCVLRDSNCELSSTYWYRKKSGSTNEESISKGGRYVETVNSGSKSFSLRINDLVVEDSGTYRCNVQQFPSRHNGRYWCDVYGGGTAVTVNA
Kd [1]: 8.4 nM | koff [1]: 0.000618 s⁻¹ | kon [1]: 73600 M⁻¹ s⁻¹ | Kd [2]: 25 nM | koff [2]: 0.000948 s⁻¹ | kon [2]: 38000 M⁻¹ s⁻¹

B3: Clone H variant 2 VNAR-hFc (Fc fusion, not shown: a dimerising Fc or GST)
chain: ARVDQTPQTITKETGESLTINCVLRDSNCELSSTYWYRKKSGSTNEESISKGGRYVETVNSGSKSFSLRINDLVVEDSGTYRCNVQQFPSSWPFRYWCDVYGGGTAVTVNA
Kd [1]: 25.2 nM | koff [1]: 0.000482 s⁻¹ | kon [1]: 19100 M⁻¹ s⁻¹ | Kd [2]: 3.77 nM | koff [2]: 0.000403 s⁻¹ | kon [2]: 107000 M⁻¹ s⁻¹

B4: Clone H variant 10 VNAR-hFc (Fc fusion, not shown: a dimerising Fc or GST)
chain: ARVDQTPQTITKETGESLTINCVLRDSNCELSSTYWYRKKSGSTNEESISKGGRYVETVNSGSKSFSLRINDLVVEDSGTYRCNVQQFPSWFNGRYWCDVYGGGTAVTVNA
notes: also called clone H var; 10
Kd [1]: 5.53 nM | koff [1]: 0.000279 s⁻¹ | kon [1]: 50500 M⁻¹ s⁻¹ | Kd [2]: 3.37 nM | koff [2]: 0.000269 s⁻¹ | kon [2]: 79900 M⁻¹ s⁻¹ | fold reduction of binding relative to WT mTfR-1 [3]: ~10 fold | EC50 [4]: 4 nM | EC50 [5]: 2.5 nM | EC50 [6]: 22 nM | EC50 [7]: 3.3 nM

B5: Clone H variant 7 VNAR-hFc (Fc fusion, not shown: a dimerising Fc or GST)
chain: ARVDQTPQTITKETGESLTINCVLRDSNCELSSTYWYRKKSGSTNEESISKGGRYVETVNSGSKSFSLRINDLVVEDSGTYRCNVQQFPTRTNGRYWCDVYGGGTAVTVNA
Kd [1]: 15.6 nM | koff [1]: 0.000399 s⁻¹ | kon [1]: 25600 M⁻¹ s⁻¹

B6: Clone H variant 1 VNAR-hFc (Fc fusion, not shown: a dimerising Fc or GST)
chain: ARVDQTPQTITKETGESLTINCVLRDSNCELSSTYWYRKKSGSTNEESISKGGRYVETVNSGSKSFSLRINDLVVEDSGTYRCNVVQWPSSSNGRYWCDVYGGGTAVTVNA
notes: also called clone H var
Kd [1]: 4.69 nM | koff [1]: 0.000195 s⁻¹ | kon [1]: 41600 M⁻¹ s⁻¹ | Kd [2]: 2.38 nM | koff [2]: 0.000121 s⁻¹ | kon [2]: 50800 M⁻¹ s⁻¹ | fold reduction of binding relative to WT mTfR-1 [3]: ~10 fold | EC50 [4]: 0.99 nM | EC50 [5]: 0.69 nM | EC50 [6]: 4.7 nM | EC50 [7]: 1.4 nM

B7: Clone H variant 3 VNAR-hFc (Fc fusion, not shown: a dimerising Fc or GST)
chain: ARVDQTPQTITKETGESLTINCVLRDSNCELSSTYWYRKKSGSTNEESISKGGRYVETVNSGSKSFSLRINDLVVEDSGTYRCNVQQFPSWGNGRYWCDVYGGGTAVTVNA
Kd [1]: 5.59 nM | koff [1]: 0.000273 s⁻¹ | kon [1]: 48900 M⁻¹ s⁻¹ | Kd [2]: 4.71 nM | koff [2]: 0.000254 s⁻¹ | kon [2]: 53900 M⁻¹ s⁻¹

B8: Clone H variant 4 VNAR-hFc (Fc fusion, not shown: a dimerising Fc or GST)
chain: ARVDQTPQTITKETGESLTINCVLRDSNCELSSTYWYRKKSGSTNEESISKGGRYVETVNSGSKSFSLRINDLVVEDSGTYRCNVQQFPSRFNGRYWCDVYGGGTAVTVNA
Kd [1]: 12.4 nM | koff [1]: 0.000352 s⁻¹ | kon [1]: 28300 M⁻¹ s⁻¹ | Kd [2]: 15.9 nM | koff [2]: 0.00183 s⁻¹ | kon [2]: 115000 M⁻¹ s⁻¹

Reference: patent US20210403591A1 (OSSIANIX, published 2021)
